For 1 substance, degradation of total CD81, Western blot of HepG2 cells results are on record in US20170224816A1.

The assay concerns the target CD81 (UniProt P60033). The experiment in a line: cell-based or functional assay.
UniProt P60033, sequence (P60033 whole entry): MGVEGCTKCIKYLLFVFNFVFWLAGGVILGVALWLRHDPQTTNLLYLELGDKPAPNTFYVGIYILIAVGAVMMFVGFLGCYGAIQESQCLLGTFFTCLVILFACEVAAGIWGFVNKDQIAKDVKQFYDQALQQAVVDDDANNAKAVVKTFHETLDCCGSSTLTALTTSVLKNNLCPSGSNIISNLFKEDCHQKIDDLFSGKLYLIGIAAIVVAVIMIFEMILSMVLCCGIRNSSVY

As to “PCSK9 (proprotein convertase subtilisin/kexin type 9) (from UniProt Q8NBP7 31-692) (enzyme)”, the degradation of total CD81, Western blot of HepG2 cells is 25%.
